Assay results taken from article PMC9063327.

What was measured:
purified protein [1] = substrate: CC(=O)C(=O)O; assay: purified protein; assay type: biochemical, Lactococcus lactis; details: 50 mM potassium phosphate, 1 mM MgSO4, 0.5 mM thiamine pyrophosphate, 0.2 mM NADH; brackets are 95% CI
purified protein [2] = substrate: CC(C)C(=O)C(=O)O; assay: purified protein; assay type: biochemical, Lactococcus lactis; details: 50 mM potassium phosphate, 1 mM MgSO4, 0.5 mM thiamine pyrophosphate, 0.2 mM NADH; brackets are 95% CI

B1: KivD (Lactococcus lactis subsp. lactis) (protein)
chain: MYTVGDYLLDRLHELGIEEIFGVPGDYNLQFLDQIISHKDMKWVGNANELNASYMADGYARTKKAAAFLTTFGVGELSAVNGLAGSYAENLPVVEIVGSPTSKVQNEGKFVHHTLADGDFKHFMKMHEPVTAARTLLTAENATVEIDRVLSALLKERKPVYINLPVDVAAAKAEKPSLPLKKENSTSNTSDQEILNKIQESLKNAKKPIVITGHEIISFGLEKTVTQFISKTKLPITTLNFGKSSVDEALPSFLGIYNGTLSEPNLKEFVESADFILMLGVKLTDSSTGAFTHHLNENKMISLNIDEGKIFNERIQNFDFESLISSLLDLSEIEYKGKYIDKKQEDFVPSNALLSQDRLWQAVENLTQSNETIVAEQGTSFFGASSIFLKSKSHFIGQPLWGSIGYTFPAALGSQIADKESRHLLFIGDGSLQLTVQELGLAIREKINPICFIINNDGYTVEREIHGPNQSYNDIPMWNYSKLPESFGATEDRVVSKIVRTENEFVSVMKEAQADPNRMYWIELILAKEGAPKVLKKMGKLFAEQNKS
notes: full length, pET28a, N-terminal His tag (kept), expressed in E. coli BL21(DE3), Ni-NTA purified; gene from pGEM-kivD
Q: Which results are given for B1?
A: Km (purified protein [1]): 18.81 (17.15, 20.85) mM; Vmax (purified protein [1]): 0.0034 (0.0029, 0.0039); kcat (purified protein [1]): 0.28 s⁻¹; kcat/Km (purified protein [1]): 15.1 M⁻¹ s⁻¹; Km (purified protein [2]): 4.18 (4.08, 4.23) mM; Vmax (purified protein [2]): 0.0409 (0.038, 0.044); kcat (purified protein [2]): 3.46 s⁻¹; kcat/Km (purified protein [2]): 828 M⁻¹ s⁻¹
